Data from publication PMC7311308.

Target: CD46-D4

## Ad26 knob (domain or fragment)
  Kd: 120 nM
